Laboratory results reported in US20220249649A1 (ECOLE POLYTECHNIQUE FEDERALE DE LAUSANNE, published 2022).

Biological target: T1, D25 antibody (IgG)
T1 construct: RSVF site 0 neutralising antibody, human IgG1 vector; The IgG was immobilised on the SPR chip; PDB 4JHW is cited; also called nAb D25
Test: not stated (comparison value, FIG. 18 cited)

B1: prefusion stabilized RSVF (sc9-10 DS-Cav1 A149C Y458C S46G E92D S215P K465Q variant, DS2) (other)
chain: QNITEEFYQSTCSAVSKGYLGALRTGWYTSVITIELSNIKENKCNGTDAKVKLIKQELDKYKNAVTDLQLLMQSTPPTNNGSGSAICSGVAVCKVLHLEGEVNKIKSALLSTNKAVVSLSNGVSVLTFKVLDLKNYIDKQLLPILNKQSCSIPNIETVIEFQQKNNRLLEITREFSVNAGVTTPVSTYMLTNSELLSLINDMPITNDQKKLMSNNVQIVRQQSYSIMCIIKEEVLAYVVQLPLYGVIDTPCWKLHTSPLCTTNTKEGSNICLTRTDRGWYCDNAGSVSFFPQAETCKVQSNRVFCDTMNSLTLPSEINLCNVDIFNPKYDCKIMTSKTDVSSSVITSLGAIVSCYGKTKCTASNKNRGIIKTFSNGCDYVSNKGMDTVSVGNTLYCVNKQEGQSLYVKGEPIINFYDPLVFPSDEFDASISQVNEKINQSLAFIRKSDELL
notes: also called preRSVF; prefusion RSVF
Question: How did the Kd turn out when B1 was run?
Answer: Its Kd is 150 µM.
